Measured values as given in the nanobody polyreactivity screen of Harvey et al. (2022).

Test: yeast display, Sf9 membrane polyspecificity reagent, FACS + sequencing; frameworks hold sequencing errors
Summary of the method: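 Synthetic nanobody libraries on Saccharomyces cerevisiae BJ5465 were galactose-induced for 36–48 hours, stained 1 hour at 4 °C with 10% biotinylated, detergent-solubilized Sf9 membrane reagent and enriched on streptavidin microbeads. FACS then separated cells into low and high (top ~1%) gates by anti-HA (expression) and streptavidin (reagent binding) fluorescence. Genes were colony-PCR amplified, MiSeq 2 × 250 sequenced and CDR-length filtered. A clone's polyreactivity label is that of its gate of origin.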

| Sequence | polyreactivity (PSR sort gate) |
| --- | --- |
| QVQLVESGGGLVQAGGSLRLSCAASGFTFPVYGMGWYRQAPGKERELVAAISSRGGNTYYADSVKGRFTISRDNAKNTVYLQMNSLKPEDTAVYYCAAGGITYTGDDYWGQGTQVTVSS | high polyreactivity |
| QVQLVESGGGLVQAGGSLRLSCAASGSTFRWNAMGWYRQAPGKERELVAAISGNGGSTYYADSVKGRFTISRDNAKNTVYLHMNTLKPEYNAVYYCAARGYFCSSYKYDYRGQGTQVTVSS | high polyreactivity |
| QVQLVESGGGLVQAGGSLRLSCAASGSIFDNNAMGWYRQSPGKEREFVAAISWIGGSTSYADSVKGRFTISSDNAKNTVYLQMNSLKPEDTAVYYCNSLRYYPYGLPIYDYWGQGTQVTVSS | low polyreactivity |
| QVQLVESGGGLVQAGGSLRLSCAASGRTFAYNAMGWYRQAPGKERELVADITSGGSTYYADSVKGRFTISRDNAKNTVYLQMNRLKPEDTAVYYCAAYPQFWYWDYNYWGQGTQVTVSS | high polyreactivity |
| QVQLEESGGGLVQAGGRLRLSCAASGRIFSRNAMGGSRTATGKERELVAAISSSTGSTYYADSVKGRFTISRDNAKKTVYLQMNSLKPEDTAVYYCAARYWGDYFTEMNYWGQGTQVTVSS | high polyreactivity |
| QVQLVESGGGLVQAGGSLRLSCAASGSIFVPYAMGWYRQAPGKERELVAVITSGGSTYYADSVKGRFTISRDNAKNTVFLQMNSLKPEDTAVYYCAVDGGEFSSYGYWGQGTQVTVSS | low polyreactivity |
| QVQLVESGGGLVQAGGSLRLSCAASGSTFRYYAMGWYRQAPGKERELVASISTGGRTYYADSVKGRFTISRDNAKNTVYLQMNSLKPEDTAVYYCAAQGYWIYNTAYGYWGQGTQVTVSS | high polyreactivity |
| QVQLVESGGGIVQAGGSLRLSCAASGRIFSEYAMGWYRQAPGKERELVARITSSGGSTSYADSVKGRFTISRDNAKNTVYLQMNSLNPVDTAVYYCAGDGVWRRFYYLHYYWGQGTQVTVSS | high polyreactivity |
| QVLLVESGGGLVQAGGSLRLSCAASGYNFFTKAMGWYRQAQGKERELVAAISKSGGRTYYADSVKGRFTISRDNAKNTVYLQMNSLTPEDTAVYYCAARSETSYYPSRYDYWGQGTQVTVSS | high polyreactivity |
| QVQIVESGGGLVQAGGSLRLSFAASGSTFVLYAMGWYRPAPGKERELVAAISGGATTTYADSVKGRFTISRDNAKNSVYLQMNSLKPEDTAVYYCAADFYTFVVSGAAMDYWGQGTQVTVSS | low polyreactivity |
| QVQLVESGGGLVQAGGRLRLSCAASGSIFRRYAMGWYRQAPGKERELVAAISSKGGSTYYADSVKGRFTISRDNAKNTVYLQMNSLKPEDTAVYYCNAQLVHYRFSSVFTYTIDDYWGQGTQVTVSS | high polyreactivity |
| QVQLVESGGGLVQAGGSLRLSCAASGFTFARYALGWYRQAPGKERELVAGITYRGGRTYYADSVKGRFTISRDNEKNTVYLQMNRLKPEDTAVYYCARYGPIKYYSWGQGTQVTVSS | high polyreactivity |
| QVQLVESGGGLVQAGGSLRLSCAASGRTFWTNAMGWYRQAPGKERELVAAITKSGGRTYYADSVKGRFTISRDNAKNTVYLQMNRLKPEDTAVYYCAAYSQGEGGYWGQGTQVTVSS | high polyreactivity |
| QVQLVESGGGLVQAGGSLRLRCAASARTFAGYALGWYRQAPGKERELVAAITTGGSTKYADSVKGRFTISRDNAKNTVYLQMNSLKQEDTAVYYCAAESYYKYFNKYDYWGQGTQVTVSS | high polyreactivity |
| QVQLVESGGGLVQAGGSLRLSCAASGLTFGYYAMGWYRQAPGKVRELVAAISRGSSTYYADSVKGRFTISRDNAKNTVYLQMNSLIPEDTAVYYCNALFSYGYWRVRYIVTQYDYWGQGTQVTVSS | high polyreactivity |
| QVQLVESGGGLVQAGGSLRLSCAASAFTFYTNAMGWYRQAPGKERELVAAISGGGSTKYADSVKGRFTISRDNAKNTVYLQMNSLKPEDTAVYYCAAQIKWGYRRNRHDYWGQGTQVTVSS | high polyreactivity |
| QVQLVESGGGLVQAGGSLRLSCAASGSIFYGNAMGWYRQAPGKERELVAAISNVGRTDYADSVKGRFTISRDNAKNTVYLQMNSLKPEDTAVYYCAAGVYSGYNRYFAPRSWFGYYYWGQGTQVTVSS | low polyreactivity |
| QVQLVESGGGLVQAGGSLRLSCAASGSIFPWNTMGWYRQAPGKERELVARISTSGASTYYADSVKGRFTISRDNAKYTVYLQMNSLKQEDTAVYFCAKVRHYGGRSWWYYYWGQGTQVTVSS | high polyreactivity |
| QVQLVESGGGLDQAGGSLRLSCAASGSIFHWNVMGWYRQAPGKERKLVAVISSSDGSTNYADSVKGRFTISRDNAKNTVYLQMNCLKPEDTAVYYCAARGYAINYLWPFNYWGQGTQVTVSS | low polyreactivity |
| QVQLVESGGGLVQAVGTLRLTCAASGITFNVNAMGWYRQEPGKERELVARITTSGGSTSYADSVKGRFTISRDNAYNTVYLQMNSLKPEDTAVYYCAADRARYFSEYDYWGQGTQVTVSS | low polyreactivity |
| QVQLVESGGGLVQAGGSLRLSCAASGFTFIKYAMGWYRQAPGKEREFVPTISWNGGNTYYADSVKGRFTISRYNAKNTVYLQMNSLKPEDTAVYYCAARVKYRTRGGTVVSYDYWGQGTQVTVSS | high polyreactivity |
| QVQLVESGGGLVQAGGSLRLSCAASGITFRFNAMGWYRQAPGKEREFVAAITYSGDSTYYADSVKGRFTISRDNAKNTVYLQMNSLKPEDTAVYYCAADYYAISRRIFYYWGQGTQVTVSS | low polyreactivity |

| Sequence | polyreactivity (PSR sort gate) |
| --- | --- |
| QVQLVESGGGLVQAGGSLRLSCAASGRIFGSYVMGWYRQAPGKVRELVAAISRRGGSTYYADSVKGRFTISRDNAKNTVYLQMNSLKPEDTAVYYCAAEFSPSSNPYDYWGQGTQVTVSS | high polyreactivity |
| QVQLVESGGGLVQAGGSLRLSCAASGSTFRYNTMGWYRQAPGKERELVAAISSGGGTHFADSVKGRFTISRDNAKNTVYLQMNSLKPEDTAVYYCAAQSRYRYQFYSGLEYDYWGQGTQVTVSS | low polyreactivity |
| QVQLVESGGGLVQAGGSLRLSSAASGRIFAVNAMGRYRQAPGKERELVASIRWSGGSTNYADSVKGRFTISRDNAKNTVYLQMNSLKPEDTAVYFCAAVIYLWGQGTQVTVSS | high polyreactivity |
| QDQLVESGGGLVQAGGSLRLSCAASGFIFGNYALGWYRQAPGKERELVATITWRGGSTYYADSVKGRFTISRDNAKNTVYLQMNSLKPEDTAVYYCARPYASYSSFYYYGYWGQGTQVTVSS | high polyreactivity |
| QVQLVESGGGLVQAGGSLRLSCAASGRIFKTYAMGWYRQAPGKERELVAAISIRGGSTYYAESVKGRFTISRDNAKNTVYLQMNSLKPEDTAVYYCNALYGRQIVDYDYWGQGTQVTVSS | low polyreactivity |
| HVQLVESGGGLVQAGGSLRLSCAASGRTLYNNAMGWYRQAPGKERELVAAISSRGGSTRYADSVKGRFTISRDNAKNTVYLQMNSLKPEDTAVYSGAKRSINRDGDYWGQGTQVTVSS | high polyreactivity |
| QVQLVESGGGLVQAGGSLRLSCAASGRTFLPNDMGWSIQAPGKERELVAAITDSGGDTYYADSVKGRFTISRDNAKNTVYLQMNSLKPEDTAVYYCAADYYYYGSYYPVEYWGQGTQVTVSS | high polyreactivity |
| QVQLVESGGGLVQAGGSLRLSCAPSGRIFSYFAMGWYRQAPGKERELVAAISGNGGSTYYADSVKGRFTISRDNAKNTVYLQMNSLKPEDTAVYYCAADWWSSDWAYLYPYSYDYWGQGTQVTVSS | low polyreactivity |
| QVQLVESGGGLVQAGGSLRLSCAASASTFGGYVMARYRQAPGKERELVAAISGNGASTTYADSVKGRFTISRDNAKNTVYLQMNSLKPEDTAVYDSAALFRKAHSDYDYWGQGTQVTVSS | low polyreactivity |
| QVHLAESAAGLDQAGGRLRLSCAAYGIIFYYYAMGWYRQAPGKERELVAAISGTGGRTYYADSVKGRFTISRDNAKNTVYLQMNSLKPEDTAVYYCNADDTPVPSIRFDSWGQGTQVTVSS | low polyreactivity |
| QVQLVESGRGLVQAGGSLRLSCAASGRIFGRNAMGWYRQAPGKESELVASITSGGGTNYADSVKGRFTISRDNAKNTVYLQMNSLKPDDTAVYDCAKQFYRPGQQSRYDYWGQGMQVTVSS | low polyreactivity |
| QVQLVESGGGLVQAGGSLRLSCAASGRTFWYNAMGWYRQAPGKERELVAAISSTGGRTYYADSVKGRFTISRDNAKNTVYLQMNSLKPEDTAVYYCAKYPSKSYVPGDYWGQGTQVTVSS | low polyreactivity |
| QVQLVESGGGLVQAGGSLRLSCAASGSTFGKNAMGWYRQAPGKERELVAAITRRGGSTNYADSVKGRFTISRDNAKNTVYLQINSLKPEDTAVYYCAASWGRTSSKPFDYWGQGTQVTVSS | high polyreactivity |
| QVQLVESGGGLVQAGGSLRLSCAASGSIIVGYAMGWYRQAPGKERELVAAISWSGGRTYYADSVKGRFTISRDNAKNTVYLQMNSLKPEDTAVYYCATVTKGSLRYNYNYWGQGTQVTVSS | high polyreactivity |
| QVQLVESGGGLVQAGGSLRLSCAASGFTFISNAMGWYRQAPGKERELVAAISSSGGRTYYADSVKGRFTISRDNAKNTVYLQMNSLKPEDTAVYYCNADRSLLYSRKIEYDYWGQGTQVSVSS | low polyreactivity |
| QVQLVESGGGLVQAGGSLRLSCAASGSIFGYYAMGWYRQAPGKERELVAAINSSGGSTYYADSVKGRFTISRDNAKNTVYLQMNSLKPDDTAVYYCAVRTRYKFNYWGQGTQVTVSS | low polyreactivity |
| QVQLVESGGGLVQAGGSLRLICAASGYIFATYAMGWYRQAPGKERELVAAITSTGSTYYADSVKGRFTISRDNAKNTVYLQMNSLKPEDTAVYYCAAVSGYRARYYLYYYWGQGTQVTVSS | high polyreactivity |
| QVQLAESGGGLVQAGGSLRLSCAASGSTFPRNPMGWYRQAPGKERELVATITSSGGGTYYADSVKGRFTISRDNAKITVYLQMNSLKPEDTAVYYCNADGPAGDAFDYWGQGTQVTVSS | low polyreactivity |
| QVQLVESGGGLVQAGGSLRLSCAASGLTFYYYTMGWYRQAPGKERELVAAITSGGSTYYADSVKGRFTISRDNAKNTVYLQMNSLKPEDTAVYDCAAVPSRYGRYRYYYWGQGTQVTVSS | high polyreactivity |
| QVQVVESGGGLVQAGGSLRLSCAASGSIFTYYAMGWYRQAPGKERELVAAINWSGASTYYADSVKGRFTISRDNAKNTVYLQMNSLKPEDTAVYYCAGYGYWGQGTQVTVSS | high polyreactivity |
| QVHLVESGGVIVQAGGILRLSCAASGNIFTYYVMGWYRQAPGKERELVAAISRRGGSTYYADSVKGRFTISRDIAKNTVYLQMNSLKPEDTAVYYCAKKYPRDMDYWGQVTQVTVSS | high polyreactivity |
